In the Human Domainome abundance scans (Beltran et al. 2025):

B1: RUN and FYVE domain-containing protein 1, residues 639 to 698; numbered along this chain, Q96T51 (parent)
chain: WLKDDEATHCRQCEKEFSISRRKHHCRNCGHIFCNTCSSNELALPSYPKPVRVCDSCHTL

Variants of: B1
Test: abundance fitness (aPCA) (normalised: wild type 0, dead -1); higher = more abundant; growth selection in yeast, the domain comes from the species named
Conditions: Homo sapiens

Abundance fitness, by site and new letter:
S56: N 0.246 | I 0.136 | M 0.165 | H 0.355 | G 0.3 | Q 0.319 | K 0.232 | F 0.271 | D 0.097 | A 0.21 | W 0.033 | C 0.03 | P 0.24 | E 0.331 | Y 0.188 | T 0.284
V51: S -0.345 | T 0.184 | C -1.01 | R -0.474 | M -0.244 | H -0.945 | I -0.249 | D -0.879 | F -0.571 | L -0.353 | Q -0.17 | P -0.403 | Y -0.562 | E -0.301 | W -0.535 | K -0.636 | N -0.695 | G -0.55 | A -0.047
P45: V -0.13 | Q 0.162 | Y -0.425 | M -0.073 | R 0.009 | S 0.027 | T 0.047 | N 0.017
C57: T -0.467 | D -0.619 | Y -0.828 | P -0.697 | W -0.682 | L -0.475 | R -0.673 | I -0.88 | E -0.711 | G -0.53 | K -0.613 | Q -0.409 | F -0.794 | A -0.756 | S -0.716 | V -0.665 | H -0.957
T59: Y -0.183 | V 0.127 | P -0.281 | M 0.019 | Q 0.328 | I -0.033 | L -0.048 | F -0.207 | S 0.052 | K 0.144 | G 0.161 | C -0.051 | A 0.263 | D 0.062 | N -0.058 | H -0.148 | E 0.026
P50: I -0.807 | T -0.233 | R -0.185 | L -0.085 | H -0.347 | Q -0.219 | S -0.253 | C -0.128 | G -0.118 | K 0.023 | W -0.549 | V -0.074 | Y -0.219 | A 0.05 | M -0.162 | D -0.295 | F -0.211 | N -0.043 | E -0.078
V53: I -0.385
Y47: A 0.014 | Q -0.14 | S -0.081 | E -0.062 | L -0.069 | I -0.197 | R -0.345 | H 0.09 | D 0 | M -0.134 | K -0.262 | P -0.433 | G -0.045 | F -0.05 | V -0.026 | W -0.382 | N 0.019
C54: R -0.278 | G -0.731 | Y -0.845
D55: Y -0.31 | T -0.602
K49: Q -0.192 | H -0.11 | M -0.298 | Y -0.34 | N 0.012 | I -0.32 | S -0.09 | E -0.083 | R 0.016 | T -0.212 | C -0.133 | V -0.14 | W -0.327 | P -0.72 | G -0.057 | D -0.001 | F -0.342 | A -0.327
P48: I -0.419 | Y -0.582 | F -0.818 | Q -0.051 | E 0.118 | M -0.309 | N -0.324 | R -0.308 | K -0.178 | W -0.484 | H -0.192 | A -0.167
S46: G 0.243 | K 0.181 | L 0.151 | F -0.01 | Q 0.009 | D 0.365 | E 0.402 | C -0.133 | N 0.252 | V -0.265 | W 0.077 | P 0.069 | H -0.004 | A 0.16 | R 0.19 | Y -0.2 | M 0.086
L60: N -0.126
